Test results from article PMC7527988, “Cell-free biogenesis of bacterial division proto-rings that can constrict liposomes” (Communications Biology, 2020).

Target: T1, FtsZ labelled with Alexa Fluor 647 (E. coli, UniProt P0A9A6 1-383, Alexa Fluor 647 label, 0.9 ± 0.2 mol of fluorophore per mol of protein)
T1 construct: FtsZ, Escherichia coli cell division protein; called wild-type in the discussion; The label was added to the polymerised protein; also called FtsZ-A647
T1 sequence (looked up): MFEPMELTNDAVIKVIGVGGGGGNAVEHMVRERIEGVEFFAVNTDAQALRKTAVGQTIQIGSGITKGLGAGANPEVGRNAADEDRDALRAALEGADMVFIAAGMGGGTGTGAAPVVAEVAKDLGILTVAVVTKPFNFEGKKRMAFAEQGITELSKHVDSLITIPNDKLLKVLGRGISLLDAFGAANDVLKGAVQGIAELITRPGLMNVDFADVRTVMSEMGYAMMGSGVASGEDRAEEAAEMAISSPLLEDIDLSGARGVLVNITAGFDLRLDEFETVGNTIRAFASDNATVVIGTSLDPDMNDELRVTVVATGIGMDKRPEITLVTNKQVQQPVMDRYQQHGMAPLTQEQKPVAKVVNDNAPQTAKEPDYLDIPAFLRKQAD
Assay: recruitment to a supported lipid bilayer, fluorescence microscopy; 1 µM purified sZipA-A488 first incubated on the SLB with DGS-NTA lipids, washed; 3 µM purified FtsZ-A647 with 2 mM GTP added in minimal reaction buffer or PUREfrex2.0, with 50 g/L Ficoll70 or cell-free synthesized ZapA; spinning disk microscopy at room temperature
Settings: both partners purified

binding result: binds
B1: soluble ZipA labelled with Alexa Fluor 488 (domain or fragment)
chain: not shown
modifications: Alexa Fluor 488 label, 0.9 ± 0.2 mol of fluorophore per mol of protein
notes: Held on the supported lipid bilayer through the His6-tag and DGS-NTA lipids; also called sZipA-A488; sZipA; not shown: His6, N-terminal, kept
